Test system: HSV-1 infected rats
Assay: Intracranial pressure (ICP) and neurological symptoms in HSV-1 infected rats, fibre optic pressure sensor
Assay type: in vivo, rat
Details: HSV-1 infected rat treated twice daily, day 5
Protocol: Adult rats were infected by having a solution of the Herpes Simplex virus type 1 (HSV-1; strain 2762, batch 041028; 1.7×10^7 PFU/mL; 25 pL) instilled in their right nostril. One group of animals (n=6) received 10 min after the infection 25 pL (10 pg) of AF-16 in their right nostril, and had thereafter the same dose of AF-16 instilled twice daily, every morning at 8 AM and every night at 6 PM, until the experiment was terminated on day 6. Additional HSV-1 infected rats (n=6) received in the nose at the same time intervals 25 pL of the vehicle, phosphate buffered saline (PBS). On day 6, the animals were anaesthetized, a surgical incision made through the skin on the head, and the skull bone freed from periostium and connective tissue. A hole with a diameter of about 1 mm was drilled through the right parietal bone and a miniature pressure sensor inserted 3-5 mm into the brain or into the lateral ventricle. A fibre optic pressure measure system (Samba System 3200 & Samba Preclin 420 sensor; Samba Sensors AB, V Frolunda, Sweden) with a very small diameter, ve. 0.4 mm, was used. […] HSV-1 infected rats treated with just the vehicle were measured to have as high pressures as up to 30-45 mm Hg (FIG. 2a), considerably affect the animals as reflected by symptoms of neurological dysfunction of increasing severity. In contrast, HSV-1 infected rats treated from the time of infection with AF-16 twice daily had almost normal ICP, 8-14 mm Hg (FIG. 2 b).
Additional HSV-1 infected animals with distinctly overt symptoms were as well treated with 10 or 25 pg AF-16 intranasally, starting on day 5, 6 or 7, i.e. after having had the vehicle during the previous days. […] Thus, non of the acutely AF-16 treated rats had any persistent signs of deleterious ICP and thus no CS developed. […] That is seen in the mentioned figure (FIG. 5 a) as there is no red staining of the right half on the figure. However, treatment with 10 or 25 pg AF-16 intranasally turned the picture in HSV-1 infected rats as in the normal, non-infected ones. […] Thereby the outflow of CSF was restored and the ICP turned normal.

B1: AF: antisecretory factor; antisecretory proteins and peptides; in FIG. 2b probably AF-16 (protein, UniProt P55036 1-377, looked up)
26S proteasome non-ATPase …: MVLESTMVCVDNSEYMRNGDFLPTRLQAQQDAVNIVCHSKTRSNPENNVGLITLANDCEVLTTLTPDTGRILSKLHTVQPKGKITFCTGIRVAHLALKHRQGKNHKMRIIAFVGSPVEDNEKDLVKLAKRLKKEKVNVDIINFGEEEVNTEKLTAFVNTLNGKDGTGSHLVTVPPGPSLADALISSPILAGEGGAMLGLGASDFEFGVDPSADPELALALRVSMEEQRQRQEEEARRAAAASAAEAGIATTGTEDSDDALLKMTISQQEFGRTGLPDLSSMTEEEQIAYAMQMSLQGAEFGQAESADIDASSAMDTSEPAKEEDDYDVMQDPEFLQSVLENLPGVDPNNEAIRNAMGSLASQATKDGKKDKKEEDKK
ICP (FIG. 2b): almost turned the ICP back to normal levels

Source: patent US8389468B2, “Approach to the treatment of compartment syndrome” (Lantmannen AS-Faktor AB, priority 2006, dated 2013)
